# B1: BMP-7: 35 kDa homodimeric protein of the TGF-β superfamily; FDA-approved agent; human mature chain SEQ ID NO:1/2 (protein, listed as Homo sapiens)
# chain: IRSTGSKQRSQNRSKTPKNQEALRMANVAENSSSDQRQACKKHELYVSFRDLGWQDWIIAPEGYAAYYCEGECAFPLNSYMNATNHAIVQTLVHFINPETVPKPCCAPTQLNAISVLYFDDSSNVILKKYRNMVVRACGCH
# modifications: homodimer; human mature chain of BMP-7 (NCBI Reference Sequence NM_001719.2) comprising peptide from 293-431
# Tests used:
# [1] = tested on: SMAD1/5/8 phosphorylation; test: SMAD1/5/8 phosphorylation by immunofluorescence in hNEPT; format: cell-based, human; details: 2 h after the addition of BMP-7 to hNEPT
# Description: In order to study the mechanism behind the effects of BMP-7 on hNEPT preparations, the potential receptors engaged by BMP-7 were studied. BMP-7 binds with high affinity to heteromeric complexes formed by BMPR2 (Bone Morphogenetic Receptor Type II) and the activin-like kinase (ALK) ALK3, ALK6 or ALK2 type I serine/threonine kinase receptors^25. […] These findings are consistent with numerous reports that identify ALK3 as the receptor that mediates BMP-7 function in several biological models of regeneration, including adult liver regrowth^23, differentiation of epidermal Langerhans cells^24 and kidney regeneration and fibrosis reversa1^22. The activation of the canonical BMP signaling pathway entails the phosphorylation of SMAD1/5/8 upon ALK3 engagement.
# IF analysis and confocal microscopy: The present study was conducted on human pancreatic samples from cadaveric organ donors. In addition to our own cGMP facility, the Network for Pancreatic Organ Donors with Diabetes (nPOD, www.jdrfnpod.org)55 also provided tissue sections. For IF staining, 5 μm-thick frozen sections or cultured cells were fixed with 4% paraformaldehyde (PFA) for 20 min at room temperature, rinsed with HBSS, washed (3 x 5 min each) with lx Supersensitive Wash Buffer (Biogenex HK583-5K) and then incubated in permeabilization buffer PBSTr [0.2% Triton X-100 (Sigma-Aldrich) in PBS] for 30 min at room temperature. […]
# [2] = tested on: hNEPT; test: Immunofluorescence / ImageJ quantification of C-peptide+ cells; format: cell-based, human; details: 12 fields/sample, n=3; controls 8.15±0.92%, P<0.0001
# Procedure: Immunofluorescence characterization of the insulin-expressing clusters was conducted. To rule out potential false-positives derived from the presence of residual insulin in the culture medium, we stained for C-peptide, which is present in pro-insulin and therefore indicates de novo synthesis of insulin. […] In order to quantify the number of C-peptide+ cells after BMP-7 treatment ImageJ and the FIJI Analyze particles feature was used. Using this software on an average of 12 fields/sample (n=3), the percentage of C-peptide+cells in hNEPT populations after BMP-7 treatment was determined to be 30.43±4.07% vs. 8.15±0.92% in controls (P<0.0001).
# IF analysis and confocal microscopy: The present study was conducted on human pancreatic samples from cadaveric organ donors. […]
# Imaging analysis: For general quantification purposes (e.g., percentage of C-peptide+ cells) we used ImageJ and the FIJI Analyze particles feature. […] Images were then binarized for quantification. The Watershed function was used on the DAPI channel to separate touching nuclei, which were subsequently counted by the Analyze particle command. Subsequently, we detected nuclei that were overlapping with C-peptide+ areas using the AND operator under the Image calculator feature of FIJI. Finally, we quantified the number of nuclei in the overlap area and calculated the ratio of the overlapping nuclei against the total nuclei.
# [3] = tested on: stz-treated diabetic mice; test: Systemic BMP-7 in stz-treated diabetic CD1 mice; format: in vivo, mouse; details: BMP-7 500 μg/kg IP daily for 30 days, stz 200 mg/kg
# Procedure: Systemic BMP-7 (500 μg/kg) is administered to CD1 mice by means of intraperitoneal (IP) injection daily for 30 days. This dose is within the range reported for rodents in other BMP administration settings^18,67-69, and is refined in subsequent preclinical experiments. Acute diabetes is induced by a single injection of stz (200 mg/kg) prior to BMP-7 treatment. Controls receive saline by the same route. […] Similar doses^18 are effective at reversing kidney fibrosis. Ten animals/group are used. Half of the animals in each group receive BrdU in the water. Mice are euthanized 30 days after initiation of treatment, or earlier if diabetes reversal is observed. Glycemia is monitored daily at the same time, right before injection. IPGTTs and determination of PI/I ratios is done at 14 and 30 days. Upon euthanasia, the pancreas and other organs are harvested and analyzed by a pathologist to establish if there are tumorigenic or otherwise toxic effects associated with the treatment. The pancreas is also studied by IF in search of potential β-cell/endocrine cell neogenesis and/or signs of β-cell/endocrine cell proliferation (BrdU-treated animals) when compared to saline-treated controls. […] Relative quantification of β-cell/endocrine cell neogenesis are done using normalized total insulin quantification and the imaging techniques described in Example 4 and^17. […]
# [4] = tested on: ALK3+ cells from hNEPT; test: BMP-7 response of ALK3-enriched / ALK3+-sorted fraction; format: cell-based, human
# Procedure: Magnetic bead-based methods (Miltenyi) were used for the enrichment of ALK3+ cells from hNEPT. Both enriched and negative fractions are subsequently plated and treated with BMP-7 or left untreated (controls).
# The identity of sorted cells is confirmed by IF, and aliquots are cultured in adherent conditions. Single sorted pancreatic cells are notoriously difficult to culture in plastic, which is addressed by using a combination of Matrigel®-coated plates and fully defined media [STEMPRO® (Thermofisher Scientific, Grand Island, N.Y.) or Kubota's Medium® (PhoenixSongs Biologicals Branford, Conn.)]^8,29,48,49 Matrigel® is used to grow multipotent pancreatic cells^50,51. Colonies from dissociated ALK3^+ cells sorted from fresh hNEPT are readily grown in these conditions, and resemble those obtained from the MPD without sorting. The typical “ring” morphology described by others^50,51 is observed when plating ALK3^+ cells in 3D conditions or fibroblast feeder cells.
molecule,measurement,setting,value
B1,SMAD1/5/8 phosphorylation in ALK3-expressing cells,[1],presented SMAD1/5/8 phosphorylation
same,percentage of C-peptide+ cells in hNEPT populations after treatment,[2],30.43±4.07%
same,glycemia vs. controls,[3],glycemic improvements
same,increase in insulin expression vs. non-BMP-7 treated controls,"[4]; ALK3+-sorted cells, preliminary qRT-PCR",10^3 fold
same,response in terms of C-peptide production,"[4]; magnetic bead ALK3-enriched fraction, only this fraction responds",BMP-7-responsive
